The source of these data is US20240216557A1 (Memorial Sloan Kettering, published 2024).

The target of the test is T1, Recombinant Human DLL3 Protein (amino acids Ala27-Ala479, cat #9749-DL, R&D Systems) (human, UniProt Q9NYJ7 27-479).
T1 construct: Bought protein
T1 sequence: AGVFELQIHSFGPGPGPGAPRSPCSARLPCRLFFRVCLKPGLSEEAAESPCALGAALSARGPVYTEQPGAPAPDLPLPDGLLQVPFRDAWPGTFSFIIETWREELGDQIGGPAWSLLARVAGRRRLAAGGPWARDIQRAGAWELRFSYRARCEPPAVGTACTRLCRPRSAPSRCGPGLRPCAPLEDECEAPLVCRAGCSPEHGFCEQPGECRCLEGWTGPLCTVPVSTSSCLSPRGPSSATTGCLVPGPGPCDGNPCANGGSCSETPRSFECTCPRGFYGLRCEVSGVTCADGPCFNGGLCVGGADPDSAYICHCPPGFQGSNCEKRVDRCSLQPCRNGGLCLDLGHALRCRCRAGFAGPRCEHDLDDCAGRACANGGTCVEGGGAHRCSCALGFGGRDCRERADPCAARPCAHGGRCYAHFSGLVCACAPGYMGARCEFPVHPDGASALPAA
Put plainly: BLI, Octet HTX, 25 C; mAb on anti-mouse Fc sensors, DLL3 as analyte from 200 nM.

Method: The 23 purified monoclonal antibodies (5 μg/mL each) were loaded onto anti-mouse Fc sensors.

B1: F21 (antibody, V domains shown)
VH: EVQLVESGGGLVQPGGSLRLSCAASGFTFSSYWMSWVRQAPGKGLEWVANIKQDGSEKYYVDSVKGRFTISRDNAKNSLYLQMNSLRAEDTAVYYCAREWLRFGGLVYWGQGTLVTVSS
VL: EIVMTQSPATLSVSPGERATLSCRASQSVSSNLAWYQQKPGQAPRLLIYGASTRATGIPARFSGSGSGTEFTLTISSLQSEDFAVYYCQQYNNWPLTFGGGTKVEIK
notes: Purified hybridoma monoclonal antibody; loaded on anti-mouse Fc sensors in BLI
B1: the Kd amounted to 6.12 nM.

B2: E23 (antibody, V domains shown)
VH: QVQLVQSGAEVRKPGASVKVSCKASGYTFTGYYMHWVRQAPGQGLEWMGWINSYSGGANYAQKFQDRVTMTRDTSVSTASMELSRLRSDDTAVYYCARDGSGWYGSYFDFWGQGTLVTVSS
VL: DIVMTQTPLSSPVTLGQPASISCRSSQSLVHSDGNTYLSWLQQRPGQPPRLLIYKISNRFSGVPDRFSGSGAGTDFTLKISRVEAEDVGFYYCIQTTQFPLTFGGGTKVEIK
notes: loaded on anti-mouse Fc sensors in BLI
With B2, the Kd was determined as 0.511 nM.

B3: D8 (antibody, V domains shown)
VH: QVQLVQSGAEVKKPGASVKVSCKASGYTFTTYYMHWVRQAPGQGLEWMGIINPSGGSTSYAQKFQGRVTMTRDTSTSTVYMELSSLRSEDTAVYYCARQGHYIGNYLDYWGQGTLVTVSS
VL: not shown
notes: as for B1
Regarding B3, the Kd came out at 0.438 nM.

B4: C22 (antibody, V domains shown)
VH: QVQLVQSGAEVKKPGASVKVSCKASGYTFTSYYMHWVRQAPGQGLEWMGIINPSGGSTSYAQKFQGRVTMTRDTSTSTVYMELSSLRSEDTAVYYCARVADIVGATFDYWGQGTLVTVSS
VL: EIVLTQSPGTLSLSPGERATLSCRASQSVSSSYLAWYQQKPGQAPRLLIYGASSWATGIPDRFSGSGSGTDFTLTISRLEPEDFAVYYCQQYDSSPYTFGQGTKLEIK
notes: as for B1
On to B4, for which the Kd was determined as 0.431 nM.

B5: L12 (antibody, V domains shown)
VH: QVQLVQSGAEVKKPGASVKVSCKASGYTFTSYYMHWVRQAPGQGLEWMGIINPSGGSRSYAQKFQGRVTMTRDTSTSTVYMELSSLRSEDTAVYYCARQLELLGNAFDIWGQGTMVTVSS
VL: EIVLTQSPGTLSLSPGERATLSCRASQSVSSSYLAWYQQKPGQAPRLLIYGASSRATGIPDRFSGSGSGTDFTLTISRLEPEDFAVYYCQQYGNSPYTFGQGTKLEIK
notes: as for B1
B5: the Kd was 3.1 nM.

B6: M11 (antibody, V domains shown)
VH: QVQLVQSGAEVKKPGASVKVSCKASGYTFTSYYIHWVRQAPGQGLEWMGIINPSGGSKSYAQKFQGRVTMTRDTSTGTVYMELSSLRSEDTAVYYCAGQLELLGNAFDIWGQGTMVTVSS
VL: not shown
notes: as for B1
With B6, the Kd worked out at 2.76 nM.

B7: J23 (antibody, V domains shown)
VH: QVQLVQSGAEVKKPGASVKVSCKASGYTFTSYYMHWVRQAPGQGLEWMGIINYSGGSKSYAQKFQGRVTMTRDTSTSTVYMELSSLRSEDTGVYYCARQGRYSGSYLDYWGQGTLVTVSS
VL: not shown
notes: as for B1
In the case of B7, the Kd was found to be 0.998 nM.

B8: F9 (antibody, V domains shown)
VH: QVQLVQSGAEVKKPGASVQVSCKASGYTFTSYYMHWVRQAPGQGLEWMGIINPSGGSTSYAQKFQGRVTMTRDTSTSTVYMELSSLRSEDTAVYYCARQGGAQWLVLAFDIWGQGTMVTVSS
VL: EIVLTQSPGTLSLSPGERATLSCRASQSVSSYLAWYQQKPGQPPRLLIYGASSRATGIPDRFSGGGSGTDFTLTISRLEPEDFAVYYCQQYDSSPYTFGQGTKLEIK
notes: also called 1F9
With B8, the Kd worked out at 3.01 nM.

B9: G16 (antibody, V domains shown)
VH: QVQLVQSGAEVKKPGASVQVSCKASGYTFTSYYMHWVRQAPGQGLEWMGIINPSGGSTSYAQKFQGRVTMTRDTSTSTVYMELSSLRSEDTAVYYCARQGGAQWLVLAFDIWGQGTMVTVSS
VL: EIVLTQSPGTLSLSPGERATLSCRASQSVSSYLAWYQQKPGQAPRLLIYGASSRATGIPDRFSGGGSGTDFTLTISRLEPEDFAVYYCQQYGSSPYTFGQGTKLEIK
notes: as for B1
With B9, the Kd stood at 4.88 nM.

B10: O24 (antibody, V domains shown)
VH: QVQLVQSGAEVKKPGASVKVSCKASGYTFTSYYLHWVRQAPGHGLEWMAIINPSGGSTSYAQKFLGRVTMTRDTSTNTVYMELSSLRSEDTAVYYCARERQQLDYYYFAMDVWGQGTTVTVSS
VL: DIQMTQSPSSLSASVGDRVTITCRASQGISNYLAWFQQKPGKAPKSLIYAASSLQSGVPSKFSGSGSGTDFTLTISSLQPEDFATYYCQQYNSYPPTFGQGTKVEIK
notes: the description prints the designation as '024' (zero); also called 024
In the case of B10, the Kd amounted to 1.28 nM.

B11: G3 (antibody, V domains shown)
VH: QVQLQESGPGLVKPSETLFLTCTVSGGSISSYYWTWIRQPAGKGLEWIGRIYTSGSTNYNPSLKSRVTMSVDTSKNQFSLKLSSVTAADTAVYYCAREDWESWTFDIWGQGTMVTVSS
VL: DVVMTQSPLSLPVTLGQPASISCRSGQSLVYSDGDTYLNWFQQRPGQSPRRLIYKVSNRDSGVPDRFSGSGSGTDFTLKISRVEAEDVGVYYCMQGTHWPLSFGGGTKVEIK
notes: as for B1
As for B11, the Kd amounted to 0.908 nM.
